Results published in the nanobody polyreactivity screen of Harvey et al. (2022).

Assay: yeast display, Sf9 membrane polyspecificity reagent, FACS + sequencing; frameworks hold sequencing errors
How it was run: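 Galactose induction of a Saccharomyces cerevisiae BJ5465 synthetic nanobody display library ran 36–48 hours. The cells were then stained for 1 hour at 4 °C with 10% biotinylated, detergent-solubilized Sf9 membrane reagent, pulled down on streptavidin microbeads and FACS-sorted into low and high (top ~1%) gates on expression and reagent-binding fluorescence. Labels for polyreactivity follow the gate of origin.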

## QVQLVESGGGLVQAGGSRRLSCAASGSIFTSNAMGWYRQAPGNERDLVAVITGSTGRTHYADSVKGRFTISRDNAMNTVYLQMNSLKPEDTAVYYFSAGLTFVTNFDYWGQGTHVTVSS
  polyreactivity (PSR sort gate): low polyreactivity

## QVQLVESGGGLVQAGGSLRLSCAASGFTFRKNAMGWYRQAPGKERELVAAISSGSGSTYYADSVKGRFTISRDNAKNTVYLQMNSLKPEDTAVYYCNSEAYYTTGYPTSDVFDRYDYWGKGTQVTVSS
  polyreactivity (PSR sort gate): low polyreactivity

## QVQLVESGGGLVQAGGSLRLSCAASGIISIFNVMGWYRQAPGKERELVASITGRGGSTFYADSVKGRFTISRDNAKNTVYLQMNSLKPEDTAVYYCATDTGYTYPVTGLYDYWGQGTQVTVSS
  polyreactivity (PSR sort gate): low polyreactivity

## QVQLVESGGGLVQAGGSLRLSCGASGRIFGRYAMGWYRQAPAKERELVAVITFSGGDTFYADSVKGRFTISRDNAKNTVYLQMNSLKPEDTAVYYCAKSQGFETYRNVSIFGYWGQGTQVTVSS
  polyreactivity (PSR sort gate): low polyreactivity

## QVQLVESGGGLVQAGGSLRLSCAASGLTFWDNAMGWYRQAPGKERELVAAITRSGGSTHYADSVKGRFTISRDNAKNTVYLQMNSLKPEDTAVYYCAADYDFYDFSYQSWSEENYWGQGTQVTVSS
  polyreactivity (PSR sort gate): low polyreactivity

## QVQLVESGGGLVQAGGSLRLSCAASGGTFGSNAMGWYRQAPGKERELVARISGRGGRTYYADSVKGRFTISRDNAKNTVYLQMNSLKPEDTAVYYCAATYIIWGQGTQVNVSS
  polyreactivity (PSR sort gate): high polyreactivity

## QVQLVESGGGLVQAGGSLRLICAASGRPFTYNMGWYRQAPGKERELVAANDLRRLCEGALHNFTRQCEEYRLFTDVQPETGRYPVYYCNADPAWIWYTFDYWGQGTQVTVSS
  polyreactivity (PSR sort gate): low polyreactivity

## QVQLVESVGGLVQAGGSLRLSCAASGSIFRLYALGWSRQAPGKERELVAAIRYSTGRTYSADSVKGRFTISRDNAKNTVYLQMNSLKPEDTAVYYCNARSWYIRGSQEYYYWGQGTQVTVSS
  polyreactivity (PSR sort gate): high polyreactivity

## QVQLVESGGGLVQAGGSLRLSCAASGRTFRYYAMGWYRQAPGKERELVAAISSSGDRTYYADSVKGRFTISRDNAKNTVYLQMNSLKPEDTAVFYCAADRGARGDYWGQGTQVTVSS
  polyreactivity (PSR sort gate): high polyreactivity

## QVQLVESGGGLVQAGGSLRLSCAASGFTFTRYTMGWYSQEPGKERELVARITRSGGSTYYADSVKGRFTISRDNAKNTVYLQMNSLKPEDTAVYYCAADTWSYTTRYYYWGQGTQVTVSS
  polyreactivity (PSR sort gate): high polyreactivity

## QVQLVESGGGLVQAGGSLRLSCAASGRIFKSYAMGWYRQAPGKERELVASISYTGGSTYYADSVKGRFTISRDNAKNTVYLQMNSLKPEDTAVYYCAAKRVRSAGSYGYWGQGTQVTVSS
  polyreactivity (PSR sort gate): low polyreactivity

## QVQLVESGGGLVQAGGSLRLSCAASGSTFDVNAMGSYRQAPGKERELVAAISWNSGSTYYADSVKGRFTISRDNAKNTVYLQMNSLKPEDTAVYYCAATYGTGRRSKYGYWGQGTQVTVSS
  polyreactivity (PSR sort gate): high polyreactivity

## QVQLVESGGGLVQAGGSLRLSCAASGSIFRYYAMGWYRQAPGKERELVARISSGGSTYYADSVKGRFTISRDNAKNTVYLQMNSLKPEDTAVYYCNAGAPARYWWEGDYWGQGTQVTVSS
  polyreactivity (PSR sort gate): high polyreactivity

## QVQLVESGGGLVQAGGSLRLSCAASGFTFARNAMGWYRPAPGKERELVAGITSRGSSTSYADSVKGRFTISRDNAKNTVYLQMNSLKPEDTAVYYSAADRYSAYLYWDEYWGQGTQVTVSS
  polyreactivity (PSR sort gate): high polyreactivity

## QVQLVESGGGIVQAGCSLRLSCAASGRIFGYYSMGWYRQAPGKDTELVAAISNGGSTHYADSVKGRFTISRDNAKNTVYLHMNSLKPEDSAVYYCAARWHYGYYAYYYWGQGTQVTVSS
  polyreactivity (PSR sort gate): high polyreactivity

## QVQLVESGGGLVQAGGSLRLSCAASGFTFVYYTMGWYRPAPRKVRELVAAISSSGGRTSYADSVKGLFTISRDNAKNTVYLQMNSLKPEDTAVYYCAARAYPTWRTYYYWGQGTQVTVSS
  polyreactivity (PSR sort gate): high polyreactivity

## QVQLVESGGALVQAGGSLRLSCAASGFTFRGYAMGWYRQAPGKEMELVAAIRGGGGRTYYADSVKGRFTISRDNAKNTVYLQMNSLKPEDTAGYYCAASYYDYSDVRSDYWGQGTQVTVSS
  polyreactivity (PSR sort gate): high polyreactivity

## QVQLVESGGGLVQAGGSLRLSCAASGFTFAHNAMGWYRQAPGKERELVAAITRSGGSTYYADSVKGRFTISRDNAKNTVYLQMNSLKPEDTAVYYCNAGRRGSGYGYWGQGTQVTVSS
  polyreactivity (PSR sort gate): high polyreactivity

## QVQLVESGGGLVQAGGSLRKSCAASGRIFGINAMGWSRQAPGNERELVAAITWGVGSTYYADSVKGRFTISRDNAKNTVYLQMNSLKPEDTAVYYCAKRRYYGYGGDYWGQGTQVTVSS
  polyreactivity (PSR sort gate): high polyreactivity

## QVQLVESGGGLVQAGGSLRLSCAASGRTSVLYAMGWYRQAPGKEREFVAAITWNSGSTYYADSVKGRFTISRDNAKNTVYLQMNSLKPEDTAVYYCNADYYFSSYRSTYDYWGQGTQVTVSS
  polyreactivity (PSR sort gate): low polyreactivity

## QVQLVESVGGLVQSGGSLRLSCAASGFIFVVYAMGSYRQAPGKERELVATISSGGGTYYADSVKGRFTISRDNAKNTVYLQMNSLKPEDTAVYYCAARRRRLYHFGGNNYWGQGTQVTVSS
  polyreactivity (PSR sort gate): high polyreactivity

## KVQLVESGGGFVQAGGSLRLSCAPSGSIFTWNAMGLYRQAPGKERELVAAITRGGSTYADSVKGRFTLSRDNAKNTVYLQMNSLKPEDTAVYYCNAVYGVYEFNYWGQGTQVTVSS
  polyreactivity (PSR sort gate): low polyreactivity

## QVQLVESGGGLVQAGGSLRLSCAASGRIFRRNVMGWYRQAPGKERELVAAITGSGSSTYYADSVKGRFTISRDNAKNTVYLQMNSLKPVDTAVYYCATKWRFKLGDYWGQGTQVTVSS
  polyreactivity (PSR sort gate): high polyreactivity

## QVQLEESGGGLVQAGGSLRLSCAASGRIFYRYAMGWYRQAPGKERELVAAISSGGSTYYADSVKGRFTISRDNAKNTVYLQMNSLKPDDTAVYYCAATWGRGTYYLYYYWGQGTQVTVSS
  polyreactivity (PSR sort gate): high polyreactivity

## QVQLVESGGVLVQAGGSLRLSCAASGSIFSYNVMGWYRQAQGKEREFVAAITRSGGSTYYADSVKGRFTISRDNAKNTVYLQMNSLKPEDTAVYYCATAYYYTPFREYYYWGQGTQVTVSS
  polyreactivity (PSR sort gate): low polyreactivity

## QVQLVESGGGLVQAGGSLRLSCAASGSIFWYNAMVWYRQAPGKERELVAAISYSGDRTYYADSVKGRFTISRDNAKYTVYLQMNSLKPEDTAFYYCAKAGTGFYNSWWEDYWGQGTQVTVSS
  polyreactivity (PSR sort gate): low polyreactivity

## QVKLEESGGGLVQAGGSLRLTCAASGSTFKYNAMGWYRQAPGKERELVAAISSGGSTNYADSVKGRFTISRDNAMNTVYLQMISLKPEDTAVYYCNADYTYVTAWYYYWGQGTQVTVSS
  polyreactivity (PSR sort gate): high polyreactivity

## QVQLQESGGGLVQAGGSLRLSCAASGTNFYKDDMGWYRQAPGKEREFVAGIDRGGTTNCAGSVKGRFTISRDNAKNTVYLQMISLKPEDTAVYYCAAYYPDIYPFIYRGQGTQVTVSS
  polyreactivity (PSR sort gate): high polyreactivity

## QVQLVESGGGLVQAGGSLRLSCAASGSIFDPYAMGWYRQAPGKERELVAVINDGGRTTYADSVKGRFTISRDNAKNTVYLQMNSLKPEDTAVYYCAATYYFSRWDLFGYWGQGTQVTVSS
  polyreactivity (PSR sort gate): low polyreactivity

## QVQLVESGGGLVQAGGSLRLSCAASGRIFDYYGMGWYRHAPGKERELVAAITSSGSRTYYADSVKGRFTISRDNAKNTVYLQMNSLKPEDTAVYYCARGGGRRKGLVDYWGQGTQVTVSS
  polyreactivity (PSR sort gate): low polyreactivity

## QVQLVESGGGLVQAGGSLRLSCAASGSTFAGYVMGWYRQAPGKERELVAAISRSGGSTYYADSVKGRFTISRDNAKNTVYLQMNSLKPEDTAVYYCAARNSPGLPGDYWGQGTQVTVSS
  polyreactivity (PSR sort gate): high polyreactivity

## QVQLVESGGGLGQAGGSLRLSCAASGSIYNDNVMGWYRQAPGKERELVAGISRSGTRTYYADSVKGRFTISRDNAKNTVYLQMNSLKPEDTAVYYCAAAYGQARRYNASQYGSWGQGTQVTVSS
  polyreactivity (PSR sort gate): high polyreactivity

## PVQLVESGGGLVQAGGSLRLSCAASGRIFKPYAMGWYRQAPGKERELVAAISGSGTRTYYADSVKGRFTISRANAKNTVYLQMNSLKPEDTAVYFCAAAYYSTYRNRMDYWGQGTQVTVSS
  polyreactivity (PSR sort gate): high polyreactivity

## QVQLVESGGGLVQAGGSLRLSCDASGLIFPWNSMGWYRQAPGQERELVAAINGRDGSTYYADSVKGRFTISRDNAKNTVYLQMNSLKPEDTAVFYCAKGPSGVRTYREYDSWGQGTQVTVSS
  polyreactivity (PSR sort gate): low polyreactivity

## QVQLVESGGGLVQAGGSLRLSCAASGRTFVTYAKGWYRQAPGKERELVAAISASGGSTYYADSVKGRFTISRDNAKNTVYLQMNSLNPEDTAVYYCAKTYFLATPYGYWGQGTQVTVSS
  polyreactivity (PSR sort gate): low polyreactivity

## QVQLVESGGGLVQAGGSLRLSCAASGSTFACNGMGWYRQAPGKERELVAGIDVTGGSTYYADSVKGRFTISRDNAKNTDYLQMNSMKPEDTAVYYCNARYVYHSSFAGFDYWGQGTQVTVSS
  polyreactivity (PSR sort gate): low polyreactivity

## QVQLVESGGGLVQAGGSLRLSCAASGFIFVRYAMGWYRQAPGKEREFVASITRSDGSTYADSVKGRFTISRDNAKNTVYIQMNSLKPEDTAVYYCNKDNHDVELPVEFEYWGQGTQVTVSS
  polyreactivity (PSR sort gate): high polyreactivity

## QVQLVESGGGLVQAGGSLRLTCAASGRICSNYAMGWYRPARGKERELLAAITVIGGRTYYADSVKGRFTISRDNPKNTVYLHMNSPKPEDTAVYYCAATPRRPWFYGSDYWGQGTQVTVSS
  polyreactivity (PSR sort gate): high polyreactivity

## QVQLVESGGGLVQAGGSLRLSCAASGITFGYNTMGWYRQAPGKERELVAAISGSGGRTYYADSLKGRFTISRDNSKNTVYLQMNSLKPEDTAVYYCAARWPIWSSLYDYWGQGTQVTVSS
  polyreactivity (PSR sort gate): high polyreactivity

## QVQLVEAGGGLVQAGGSLRLSCAASGSTLVYNDMGWYRQAPGKEREFVAAIRSNDGSTYYADSVKGRFTISRDNAKNTVYLQMNSLKPEDTAVYFCNKDVWDGYDWPEFDYWGQGTQVTVSS
  polyreactivity (PSR sort gate): low polyreactivity

## QVQLVESGGGLVQAGGSLRLSCAASGYIFLRNAMGWSRQAPGKERELVAAIRRTGGSTYYADSVKGRFTISRDNAKNTVYLQMNSLKPEVTAVYYCAKRSYTGYEYWGQGTQVTVSS
  polyreactivity (PSR sort gate): low polyreactivity

## QVQLVESGGGLVQAGGSLRLSCAASGRIFAHYTMGWYRQAPGKERELVAAISIRGGRTNYTDSVKGRFTISRDNAKNTVYLQMNSLKPEDTAVYYCNARGARYYWYQLGHDYWGQGTQVTVSS
  polyreactivity (PSR sort gate): high polyreactivity

## QVQLVESGVGLVQAGGRLRLSCAASGLTLHRYTMGWYRQAPGKERELVAVITYGGGNTYYADSVKGRFTISRDNAKNTVYLQLNCLKPEDTAVYYCAARDPPFYWYDYWGQGTQVTVSS
  polyreactivity (PSR sort gate): low polyreactivity
